Laboratory results as given in patent US20160084825A1.
Values joined by “and” are separate entries in the source; they are usually repeats but may differ in a detail not shown here. Equal entries are not always repeated.

Experiments:
[1] = target: LFA-1 disulfide mutant #2 (αL E1061C / β2 G676C) on 293T cells (UniProt P20701); test: flow cytometry (FACS), LFA-1 on transfected 293T cells
[2] = target: LFA-1 disulfide mutant #3 (αL K1062C / β2 G676C) on 293T cells (UniProt P20701); test: as above
LFA-1 disulfide mutant #3 (αL K1062C / β2 G676C) on 293T cells, sequence (P20701 26-1170 K1087C, chain 1 of 2): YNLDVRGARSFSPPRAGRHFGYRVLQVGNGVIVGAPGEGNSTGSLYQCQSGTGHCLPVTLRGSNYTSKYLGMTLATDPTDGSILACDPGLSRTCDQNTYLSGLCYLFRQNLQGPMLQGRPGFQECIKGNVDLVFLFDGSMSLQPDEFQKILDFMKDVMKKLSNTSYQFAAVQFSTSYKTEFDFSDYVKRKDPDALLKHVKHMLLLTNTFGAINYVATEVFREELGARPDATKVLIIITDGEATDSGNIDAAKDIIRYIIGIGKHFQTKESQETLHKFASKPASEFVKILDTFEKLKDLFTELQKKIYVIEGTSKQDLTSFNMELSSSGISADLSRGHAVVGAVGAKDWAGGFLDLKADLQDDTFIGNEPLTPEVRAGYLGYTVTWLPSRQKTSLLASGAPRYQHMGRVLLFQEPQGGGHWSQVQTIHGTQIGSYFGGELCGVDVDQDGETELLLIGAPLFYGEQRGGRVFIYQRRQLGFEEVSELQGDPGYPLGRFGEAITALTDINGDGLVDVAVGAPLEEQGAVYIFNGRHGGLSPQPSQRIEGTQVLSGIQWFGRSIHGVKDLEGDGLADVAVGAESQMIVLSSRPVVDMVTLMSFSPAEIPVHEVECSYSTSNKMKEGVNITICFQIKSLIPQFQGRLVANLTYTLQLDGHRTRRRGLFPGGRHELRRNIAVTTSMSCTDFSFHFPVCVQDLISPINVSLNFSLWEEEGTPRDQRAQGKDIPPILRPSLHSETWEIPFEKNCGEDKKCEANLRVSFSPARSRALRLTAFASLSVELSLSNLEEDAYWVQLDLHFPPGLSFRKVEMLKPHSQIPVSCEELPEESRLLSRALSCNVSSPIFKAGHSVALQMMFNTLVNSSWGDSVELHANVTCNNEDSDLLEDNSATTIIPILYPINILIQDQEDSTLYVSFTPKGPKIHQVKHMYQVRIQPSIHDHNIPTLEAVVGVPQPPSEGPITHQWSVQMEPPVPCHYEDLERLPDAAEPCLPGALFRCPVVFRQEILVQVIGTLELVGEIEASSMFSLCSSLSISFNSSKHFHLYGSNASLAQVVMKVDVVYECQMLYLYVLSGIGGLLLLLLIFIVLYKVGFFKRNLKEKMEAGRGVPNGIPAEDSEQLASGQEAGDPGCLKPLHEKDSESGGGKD
LFA-1 disulfide mutant #3 (αL K1062C / β2 G676C) on 293T cells, sequence (P05107 23-769 G698C, chain 2 of 2, further chain): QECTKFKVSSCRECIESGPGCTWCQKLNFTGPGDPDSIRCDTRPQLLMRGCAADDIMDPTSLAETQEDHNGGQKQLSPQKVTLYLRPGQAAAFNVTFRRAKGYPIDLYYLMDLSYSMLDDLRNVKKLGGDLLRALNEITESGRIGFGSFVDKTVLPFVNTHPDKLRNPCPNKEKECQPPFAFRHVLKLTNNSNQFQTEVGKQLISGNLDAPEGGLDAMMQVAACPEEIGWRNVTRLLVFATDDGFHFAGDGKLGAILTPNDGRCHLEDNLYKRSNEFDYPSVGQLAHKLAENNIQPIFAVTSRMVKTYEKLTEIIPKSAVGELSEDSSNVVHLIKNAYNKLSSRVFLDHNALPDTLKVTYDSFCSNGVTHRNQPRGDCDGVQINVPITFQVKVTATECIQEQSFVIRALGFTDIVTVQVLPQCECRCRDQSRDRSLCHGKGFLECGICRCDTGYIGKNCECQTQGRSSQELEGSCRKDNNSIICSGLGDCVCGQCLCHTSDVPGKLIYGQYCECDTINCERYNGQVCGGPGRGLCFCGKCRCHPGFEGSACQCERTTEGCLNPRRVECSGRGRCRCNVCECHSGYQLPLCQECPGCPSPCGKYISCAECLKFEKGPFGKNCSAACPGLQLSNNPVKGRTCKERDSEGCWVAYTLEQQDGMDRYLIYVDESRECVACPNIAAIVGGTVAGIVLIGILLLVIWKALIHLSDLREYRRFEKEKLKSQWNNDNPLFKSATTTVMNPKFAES

[3] = target: LFA-1 disulfide mutant #4 (αL Q1063C / β2 G676C) on 293T cells (UniProt P20701); test: as above
LFA-1 disulfide mutant #4 (αL Q1063C / β2 G676C) on 293T cells, sequence (P20701 26-1170 Q1088C, chain 1 of 2): as the sequence (P20701 26-1170 K1087C, chain 1 of 2) above, with C1062K, Q1063C counted along it
LFA-1 disulfide mutant #4 (αL Q1063C / β2 G676C) on 293T cells, sequence (P05107 23-769 G698C, chain 2 of 2, further chain): as the sequence (P05107 23-769 G698C, chain 2 of 2, further chain) above

[4] = target: LFA-1 disulfide mutant #5 (αL K1062C / β2 P677C) on 293T cells (UniProt P20701); test: as above
LFA-1 disulfide mutant #5 (αL K1062C / β2 P677C) on 293T cells, sequence (P20701 26-1170 K1087C, chain 1 of 2): as the sequence (P20701 26-1170 K1087C, chain 1 of 2) above
LFA-1 disulfide mutant #5 (αL K1062C / β2 P677C) on 293T cells, sequence (P05107 23-769 P699C, chain 2 of 2, further chain): as the sequence (P05107 23-769 G698C, chain 2 of 2, further chain) above, with C676G, P677C counted along it

[5] = target: LFA-1 disulfide mutant #6 (αL Q1063C / β2 P677C) on 293T cells (UniProt P20701); test: as above
LFA-1 disulfide mutant #6 (αL Q1063C / β2 P677C) on 293T cells, sequence (P20701 26-1170 Q1088C, chain 1 of 2): as the sequence (P20701 26-1170 K1087C, chain 1 of 2) above, with C1062K, Q1063C counted along it
LFA-1 disulfide mutant #6 (αL Q1063C / β2 P677C) on 293T cells, sequence (P05107 23-769 P699C, chain 2 of 2, further chain): as the sequence (P05107 23-769 G698C, chain 2 of 2, further chain) above, with C676G, P677C counted along it

[6] = target: LFA-1 disulfide mutant #7 (αL M1064C / β2 P677C) on 293T cells (UniProt P20701); test: as above
LFA-1 disulfide mutant #7 (αL M1064C / β2 P677C) on 293T cells, sequence (P20701 26-1170 M1089C, chain 1 of 2): as the sequence (P20701 26-1170 K1087C, chain 1 of 2) above, with C1062K, M1064C counted along it
LFA-1 disulfide mutant #7 (αL M1064C / β2 P677C) on 293T cells, sequence (P05107 23-769 P699C, chain 2 of 2, further chain): as the sequence (P05107 23-769 G698C, chain 2 of 2, further chain) above, with C676G, P677C counted along it

[7] = target: LFA-1 disulfide mutant #8 (αL Q1063C / β2 N678C) on 293T cells (UniProt P20701); test: as above
LFA-1 disulfide mutant #8 (αL Q1063C / β2 N678C) on 293T cells, sequence (P20701 26-1170 Q1088C, chain 1 of 2): as the sequence (P20701 26-1170 K1087C, chain 1 of 2) above, with C1062K, Q1063C counted along it
LFA-1 disulfide mutant #8 (αL Q1063C / β2 N678C) on 293T cells, sequence (P05107 23-769 N700C, chain 2 of 2, further chain): as the sequence (P05107 23-769 G698C, chain 2 of 2, further chain) above, with C676G, N678C counted along it

[8] = target: LFA-1 disulfide mutant #9 (αL M1064C / β2 N678C) on 293T cells (UniProt P20701); test: as above
LFA-1 disulfide mutant #9 (αL M1064C / β2 N678C) on 293T cells, sequence (P20701 26-1170 M1089C, chain 1 of 2): as the sequence (P20701 26-1170 K1087C, chain 1 of 2) above, with C1062K, M1064C counted along it
LFA-1 disulfide mutant #9 (αL M1064C / β2 N678C) on 293T cells, sequence (P05107 23-769 N700C, chain 2 of 2, further chain): as the sequence (P05107 23-769 G698C, chain 2 of 2, further chain) above, with C676G, N678C counted along it

[9] = target: wild-type LFA-1 (αLβ2) on 293T cells (UniProt P20701); test: as above
wild-type LFA-1 (αLβ2) on 293T cells, sequence (P20701 26-1170 limits assumed, chain 1 of 2): as the sequence (P20701 26-1170 K1087C, chain 1 of 2) above, with C1062K counted along it
wild-type LFA-1 (αLβ2) on 293T cells, sequence (P05107 23-769 limits assumed, chain 2 of 2, further chain): as the sequence (P05107 23-769 G698C, chain 2 of 2, further chain) above, with C676G counted along it

[10] = target: wild-type LFA-1 (αLβ2) on 293T cells (UniProt P20701); test: flow cytometry (FACS), LFA-1 on transfected 293T cells; the reference itself
[11] = target: LFA-1 disulfide mutant #2 (αL E1061C / β2 G676C) on 293T cells (UniProt P20701); test: flow cytometry (FACS), LFA-1 on transfected 293T cells; reference wild-type LFA-1
[12] = target: LFA-1 disulfide mutant #3 (αL K1062C / β2 G676C) on 293T cells (UniProt P20701); test: as above
[13] = target: LFA-1 disulfide mutant #4 (αL Q1063C / β2 G676C) on 293T cells (UniProt P20701); test: as above
[14] = target: LFA-1 disulfide mutant #5 (αL K1062C / β2 P677C) on 293T cells (UniProt P20701); test: as above
[15] = target: LFA-1 disulfide mutant #6 (αL Q1063C / β2 P677C) on 293T cells (UniProt P20701); test: as above
[16] = target: LFA-1 disulfide mutant #7 (αL M1064C / β2 P677C) on 293T cells (UniProt P20701); test: as above
[17] = target: LFA-1 disulfide mutant #8 (αL Q1063C / β2 N678C) on 293T cells (UniProt P20701); test: as above
[18] = target: LFA-1 disulfide mutant #9 (αL M1064C / β2 N678C) on 293T cells (UniProt P20701); test: as above

LFA-1 disulfide mutant #2 (αL E1061C / β2 G676C) on 293T cells, sequence (P20701 26-1170 E1086C, chain 1 of 2): as the sequence (P20701 26-1170 K1087C, chain 1 of 2) above, with E1061C, C1062K counted along it
LFA-1 disulfide mutant #2 (αL E1061C / β2 G676C) on 293T cells, sequence (P05107 23-769 G698C, chain 2 of 2, further chain): as the sequence (P05107 23-769 G698C, chain 2 of 2, further chain) above

Row | Mean (FACS mean fluorescence) [1] | Mean value normalized with expression level (MHM24) [1] | Mean (FACS mean fluorescence) [2] | Mean value normalized with expression level (MHM24) [2] | Mean (FACS mean fluorescence) [3] | Mean value normalized with expression level (MHM24) [3] | Mean (FACS mean fluorescence) [4] | Mean value normalized with expression level (MHM24) [4] | Mean (FACS mean fluorescence) [5] | Mean value normalized with expression level (MHM24) [5] | Mean (FACS mean fluorescence) [6] | Mean value normalized with expression level (MHM24) [6] | Mean (FACS mean fluorescence) [7] | Mean (FACS mean fluorescence) [8] | Mean value normalized with expression level (MHM24) [8] | Mean (FACS mean fluorescence) [9] | Mean value normalized with expression level (MHM24) [9] | normalized mean relative to wild-type (WT is set to 1.0) [10] | normalized mean relative to wild-type (WT is set to 1.0) [11] | normalized mean relative to wild-type (WT is set to 1.0) [12] | Substance | also measured
1 | 35.8 | 0.33 | 57.4 | 0.46 | 47.8 | 0.46 | 43.5 | 0.39 | 52.3 | 0.42 | 53 | 0.39 | 38.6 | 57.1 | 0.36 | 66.3 | 0.39 | 1 | 0.83 | 1.17 | m24 (antibody) | Mean value normalized with expression level (MHM24) [7]: 0.4; normalized mean relative to wild-type (WT is set to 1.0) [13]: 1.18; normalized mean relative to wild-type (WT is set to 1.0) [14]: 0.99; normalized mean relative to wild-type (WT is set to 1.0) [15]: 1.06; normalized mean relative to wild-type (WT is set to 1.0) [16]: 0.99; normalized mean relative to wild-type (WT is set to 1.0) [17]: 1; normalized mean relative to wild-type (WT is set to 1.0) [18]: 0.92
2 | 97.4 | – | 117 | – | 95.9 | – | 102 | – | 117 | – | 126 | – | 88.5 | 147 | – | – | – | – | – | – | MHM24 (antibody) | –
3 | – | – | – | – | – | – | – | – | – | – | – | – | – | 4.06 | – | 5.96 | – | – | – | – | X63 (antibody) | –
4 | 8.27 and 9.59 | 0.016 and 0.044 | 11.1 and 15.8 | 0.039 and 0.093 | 12.1 and 12.2 | 0.06 and 0.074 | 10.3 and 9.36 | 0.036 and 0.04 | 10.9 and 14.4 | 0.037 and 0.08 | 10.8 and 11.8 | 0.033 and 0.053 | 8.54 and 12.2 | 10 and 12.1 | 0.023 and 0.047 | 12.2 and 13.9 | 0.035 and 0.055 | 1 | 0.46 and 0.81 | 1.12 and 1.69 | KIM127 (antibody) | normalized mean relative to wild-type (WT is set to 1.0) [13]: 1.69 and 1.35; normalized mean relative to wild-type (WT is set to 1.0) [14]: 1.03 and 0.73; normalized mean relative to wild-type (WT is set to 1.0) [15]: 1.06 and 1.47; normalized mean relative to wild-type (WT is set to 1.0) [16]: 0.95 and 0.96; normalized mean relative to wild-type (WT is set to 1.0) [17]: 0.61 and 1.49; normalized mean relative to wild-type (WT is set to 1.0) [18]: 0.66 and 0.85
